Assay results published in patent EP1104310B1.

What was measured:
Assay in all cases: cell-based or functional assay
[1] = biological target: CCR1 expressed on HOS-CD4 cells (UniProt P32246)
[2] = biological target: CCR5 expressed on HOS-CD4 cells (UniProt P51681)
[3] = biological target: CXCR4 expressed on HOS-CD4 cells (UniProt P61073)
[4] = biological target: CCR4 expressed on HOS-CD4 cells (UniProt P51679)
[5] = biological target: CCR3 expressed on HOS-CD4 cells (UniProt P51677)
Chain of UniProt P51677 (P51677 whole entry): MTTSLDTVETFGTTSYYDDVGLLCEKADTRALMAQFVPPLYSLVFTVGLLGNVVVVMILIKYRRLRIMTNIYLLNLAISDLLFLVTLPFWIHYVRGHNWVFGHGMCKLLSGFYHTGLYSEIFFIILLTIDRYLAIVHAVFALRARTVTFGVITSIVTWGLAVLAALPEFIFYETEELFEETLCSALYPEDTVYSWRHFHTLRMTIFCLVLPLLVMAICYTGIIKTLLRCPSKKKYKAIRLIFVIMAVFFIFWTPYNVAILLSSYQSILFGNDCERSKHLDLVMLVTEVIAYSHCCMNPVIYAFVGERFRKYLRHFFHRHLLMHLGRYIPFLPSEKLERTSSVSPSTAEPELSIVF

Chain of UniProt P61073 (P61073 whole entry): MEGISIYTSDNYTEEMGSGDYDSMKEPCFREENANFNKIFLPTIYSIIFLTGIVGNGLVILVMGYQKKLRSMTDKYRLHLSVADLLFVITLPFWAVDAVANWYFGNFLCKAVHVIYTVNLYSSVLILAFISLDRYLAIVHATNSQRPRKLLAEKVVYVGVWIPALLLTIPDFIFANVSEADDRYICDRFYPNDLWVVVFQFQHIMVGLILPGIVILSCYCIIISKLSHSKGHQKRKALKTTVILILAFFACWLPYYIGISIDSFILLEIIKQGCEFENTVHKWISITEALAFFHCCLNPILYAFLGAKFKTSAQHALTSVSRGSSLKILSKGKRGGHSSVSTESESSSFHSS
Chain of UniProt P51681 (P51681 whole entry): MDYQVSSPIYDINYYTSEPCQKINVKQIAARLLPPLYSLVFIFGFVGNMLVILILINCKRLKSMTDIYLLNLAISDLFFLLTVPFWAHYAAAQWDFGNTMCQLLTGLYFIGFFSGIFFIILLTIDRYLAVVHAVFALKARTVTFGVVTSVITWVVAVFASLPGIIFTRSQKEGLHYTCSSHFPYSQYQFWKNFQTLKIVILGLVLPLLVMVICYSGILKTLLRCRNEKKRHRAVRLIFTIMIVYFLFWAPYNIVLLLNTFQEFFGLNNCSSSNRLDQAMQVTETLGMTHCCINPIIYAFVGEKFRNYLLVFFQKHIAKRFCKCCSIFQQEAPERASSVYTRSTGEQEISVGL
Chain of UniProt P51679 (P51679 whole entry): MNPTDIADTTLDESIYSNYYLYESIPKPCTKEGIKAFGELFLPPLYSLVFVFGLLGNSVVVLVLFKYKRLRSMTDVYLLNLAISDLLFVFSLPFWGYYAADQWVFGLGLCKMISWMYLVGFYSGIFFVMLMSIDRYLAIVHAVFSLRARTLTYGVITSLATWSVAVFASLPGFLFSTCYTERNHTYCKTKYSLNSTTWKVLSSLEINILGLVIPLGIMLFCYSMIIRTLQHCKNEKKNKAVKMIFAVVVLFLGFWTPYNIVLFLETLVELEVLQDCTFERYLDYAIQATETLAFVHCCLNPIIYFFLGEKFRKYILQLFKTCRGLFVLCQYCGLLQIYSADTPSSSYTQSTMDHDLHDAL
Chain of UniProt P32246 (P32246 whole entry): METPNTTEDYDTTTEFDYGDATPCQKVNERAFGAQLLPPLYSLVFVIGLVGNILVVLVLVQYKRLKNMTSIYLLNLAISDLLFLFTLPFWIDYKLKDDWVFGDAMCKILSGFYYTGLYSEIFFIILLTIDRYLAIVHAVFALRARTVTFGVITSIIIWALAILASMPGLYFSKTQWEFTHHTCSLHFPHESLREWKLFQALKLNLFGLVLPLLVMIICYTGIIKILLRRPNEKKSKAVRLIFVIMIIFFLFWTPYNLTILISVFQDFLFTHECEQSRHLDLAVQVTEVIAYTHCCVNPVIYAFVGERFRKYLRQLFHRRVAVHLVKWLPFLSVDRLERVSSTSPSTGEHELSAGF

| Substance | Infectivity Titer in HOS-CD4 Cells Expressing CCR1 [1] | Infectivity Titer in HOS-CD4 Cells Expressing CCR5 [2] | Infectivity Titer in HOS-CD4 Cells Expressing CXCR4 [3] | Infectivity Titer in HOS-CD4 Cells Expressing CCR4 [4] | Infectivity Titer in HOS-CD4 Cells Expressing CCR3 [5] |
| --- | --- | --- | --- | --- | --- |
| HIV-1 NL4-3 envelope, expressed on pseudovirus | < 4 titer (1:n) | 32 titer (1:n) | > 256 titer (1:n) | < 4 titer (1:n) | < 4 titer (1:n) |
| HIV-1 AD8 envelope, expressed on pseudovirus | < 4 titer (1:n) | 256 titer (1:n) | < 4 titer (1:n) | < 4 titer (1:n) | < 4 titer (1:n) |
